Data: paper PMC8599580, “Focused Proteomics Analysis of Habu Snake (Protobothrops flavoviridis) Venom Using Antivenom-Based Affinity Chromatography Reveals Novel Myonecrosis-Enhancing Activity of Thrombin-Like Serine Proteases” (Frontiers in Pharmacology, 2021)

B1: [Lys49]PLA2 (BPII) (natural protein)
chain: SLVQLWKMIFQETGKEAAKNYGLYGCNCGVGRRGKPKDATDSCCYVHKCCYKKVTGCNPKMDSYSYSWKNKAIVCGEKNPPCLKQVCECDKAVAICLRENLGTYNKKYTIYPKPFCKKADTC
notes: [Lys49] phospholipase A2 BPII of Protobothrops flavoviridis; also called myonecrotic [Lys49]; PLA2; source: prepared from habu (Protobothrops flavoviridis) crude venom
B2: [Lys49] PLA2 (BPII) (natural protein)
chain: B1 chain
notes: Basic protein II (BPII), [Lys49] phospholipase A2 myotoxin of Protobothrops flavoviridis venom; also called [Lys49]PLA2 myotoxin; myonecrotic [Lys49]; PLA2
B3: TLf2, thrombin-like serine protease TLSP2 (natural protein)
chain: IIGGDECNINEHRFLVALYTFRSRRLHCGGILINQEWVLSAARCNRKNIRIQLGMHSTNVINEDVQTRVPKEKFFCLSSKTHTRWNKDIMLIRLNSPVNNSTHIAPVSLPSNPPSLGSVCRVMGWGTISATKETHPDVPHCANINILDYSVCRAAYARLPATSRTLCAGILEGGKDSCKADSGGPLICNGEIQGIVSRGGHSCGQPRKPGLYTKVFDHLDWIKSIIAGNKDAICPP
notes: numbers count on: the mature protein; also called svSP02_TLf2; basic 30 kDa protein; source: purified from habu crude venom (CM-52 basic fraction #15, POROS HS column)
B4: TLf1 (flavoxobin) (enzyme, Protobothrops flavoviridis)
chain: VIGGDECNINEHPFLVALYDAWSGRFLCGGTLINPEWVLTAAHCDSKNFKMKLGAHSQKVLNEDEQIRNPKEKFICPNKKNTEVLDKDIMLIKLDSPVSYSEHIAPLSLPSSPPSVGSVCRIMGWGSITPVEETFPDVPHCANINLLDDVECKPGYPELLPEYRTLCAGVLQGGIDTCGFDSGTPLICNGQFQGIVYIGSHPCGQSRKPGIYTKVFDYNAWIQSIIAGNTAATCLP
notes: flavoxobin, thrombin-like serine protease of Protobothrops flavoviridis; also called svSP01_TLf1; flavoxovin; source: purified from habu crude venom (CM-52 flow-through, Hi-trap benzamidine column)

Assays:
Conditions in all cases: both partners purified
[1] = target: B3; experiment: SPR; BIAcore X; TLf1 or TLf2 immobilised on a CM5 chip by amine coupling; BPII or [Asp49] PLA2 injected as analytes (12.5-100 ug/ml) in HBS (10 mM HEPES pH 7.4, 0.15 M NaCl, 3 mM EDTA, 0.005% surfactant P-20) at 20 uL/min; nonlinear least-squares fitting with BIAevaluation
TLf1 (flavoxobin) = target: B4; experiment: as above
[2] = target: T1, thrombin-like serine protease TLSP2 (TLf2) (Protobothrops flavoviridis, UniProt O13057 25-260); experiment: SPR; BIAcore X; TLf2 or TLf1 amine-coupled on CM5 chip; BPII or [Asp49] PLA2 injected as analytes (12.5-100 ug/ml) in HBS (10 mM HEPES pH 7.4, 0.15 M NaCl, 3 mM EDTA, 0.005% P-20), 20 uL/min; unmodified CM5 as control; regeneration 10 mM HCl
T1 construct: also called svSP02_TLf2; basic 30 kDa protein; source: purified from habu (Protobothrops flavoviridis) crude venom (CM-52, POROS HS)

flavoxobin (TLf1) = target: T2, flavoxobin (TLf1) (Protobothrops flavoviridis, UniProt P05620 25-260); experiment: as above
T2 construct: Flavoxobin (TLf1), thrombin-like serine protease of Protobothrops flavoviridis venom; also called flavoxovin; svSP01_TLf1

[Asp49] PLA2 = target: T3, [Asp49] PLA2 (Protobothrops flavoviridis, UniProt P06859 17-138); experiment: SPR; BIAcore X; TLf1 or TLf2 immobilised on a CM5 chip by amine coupling; BPII or [Asp49] PLA2 injected as analytes (12.5-100 ug/ml) in HBS (10 mM HEPES pH 7.4, 0.15 M NaCl, 3 mM EDTA, 0.005% surfactant P-20) at 20 uL/min; nonlinear least-squares fitting with BIAevaluation
T3 construct: hemolytic [Asp49] phospholipase A2 of Protobothrops flavoviridis; source: prepared from habu (Protobothrops flavoviridis) crude venom
T3 sequence (looked up): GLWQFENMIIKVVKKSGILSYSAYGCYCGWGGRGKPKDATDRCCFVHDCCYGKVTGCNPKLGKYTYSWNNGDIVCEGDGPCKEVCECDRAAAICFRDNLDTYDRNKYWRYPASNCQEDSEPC

Binder | Ka ([Asp49] PLA2) | Kd ([Asp49] PLA2) | koff ([Asp49] PLA2) | kon ([Asp49] PLA2) | other results
B1 |  |  |  |  | Ka [1]: 1.02e+07 M⁻¹; koff [1]: 0.00122 s⁻¹; kon [1]: 12500 M⁻¹ s⁻¹; Ka (TLf1 (flavoxobin)): 6.56e+06 M⁻¹; koff (TLf1 (flavoxobin)): 0.00257 s⁻¹; kon (TLf1 (flavoxobin)): 16900 M⁻¹ s⁻¹
B2 |  |  |  |  | Kd [2]: 97.9 nM; Kd (flavoxobin (TLf1)): 152 nM
B3 | 7.9e+06 M⁻¹ | 127 nM | 0.000791 s⁻¹ | 6250 M⁻¹ s⁻¹ | 
B4 | 371000 M⁻¹ | 2690 nM | 0.0125 s⁻¹ | 4660 M⁻¹ s⁻¹ | 
